Patent US20150064134A1

How the values were obtained:
Experiment in all cases: cell-based or functional assay
CHK2(I157T)(h) (human) = CHK2(I157T)(h) (human) (UniProt O96017)
EphB3(h) (human) = EphB3(h) (human) (UniProt P54753)
GCK(h) (human) = target: T1, GCK(h) (human) (UniProt Q12851)
T1 sequence (looked up): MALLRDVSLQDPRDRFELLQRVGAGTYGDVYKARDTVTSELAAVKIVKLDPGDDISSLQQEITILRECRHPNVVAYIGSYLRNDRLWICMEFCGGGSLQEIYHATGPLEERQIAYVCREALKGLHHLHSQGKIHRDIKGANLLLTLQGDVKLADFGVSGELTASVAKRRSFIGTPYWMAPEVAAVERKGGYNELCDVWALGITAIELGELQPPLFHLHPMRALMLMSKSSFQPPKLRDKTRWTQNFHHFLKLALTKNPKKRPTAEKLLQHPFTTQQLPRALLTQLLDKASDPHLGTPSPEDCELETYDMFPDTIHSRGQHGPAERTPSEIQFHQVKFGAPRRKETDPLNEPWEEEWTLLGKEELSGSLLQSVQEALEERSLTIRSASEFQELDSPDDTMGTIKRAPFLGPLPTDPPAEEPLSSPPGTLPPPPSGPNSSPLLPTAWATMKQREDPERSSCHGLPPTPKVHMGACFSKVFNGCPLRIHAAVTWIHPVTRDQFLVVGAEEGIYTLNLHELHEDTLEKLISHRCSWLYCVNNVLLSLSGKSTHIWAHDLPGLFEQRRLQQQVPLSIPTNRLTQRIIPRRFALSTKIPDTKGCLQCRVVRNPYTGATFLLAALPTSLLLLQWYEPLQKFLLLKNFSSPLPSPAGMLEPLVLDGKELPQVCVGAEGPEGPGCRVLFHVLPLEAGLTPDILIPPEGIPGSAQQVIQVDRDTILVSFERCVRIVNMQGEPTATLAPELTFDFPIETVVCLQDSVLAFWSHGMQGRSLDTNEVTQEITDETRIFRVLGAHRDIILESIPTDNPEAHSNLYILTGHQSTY

GRK7(h) (human) = target: T2, GRK7(h) (human) (UniProt Q8WTQ7)
T2 sequence (looked up): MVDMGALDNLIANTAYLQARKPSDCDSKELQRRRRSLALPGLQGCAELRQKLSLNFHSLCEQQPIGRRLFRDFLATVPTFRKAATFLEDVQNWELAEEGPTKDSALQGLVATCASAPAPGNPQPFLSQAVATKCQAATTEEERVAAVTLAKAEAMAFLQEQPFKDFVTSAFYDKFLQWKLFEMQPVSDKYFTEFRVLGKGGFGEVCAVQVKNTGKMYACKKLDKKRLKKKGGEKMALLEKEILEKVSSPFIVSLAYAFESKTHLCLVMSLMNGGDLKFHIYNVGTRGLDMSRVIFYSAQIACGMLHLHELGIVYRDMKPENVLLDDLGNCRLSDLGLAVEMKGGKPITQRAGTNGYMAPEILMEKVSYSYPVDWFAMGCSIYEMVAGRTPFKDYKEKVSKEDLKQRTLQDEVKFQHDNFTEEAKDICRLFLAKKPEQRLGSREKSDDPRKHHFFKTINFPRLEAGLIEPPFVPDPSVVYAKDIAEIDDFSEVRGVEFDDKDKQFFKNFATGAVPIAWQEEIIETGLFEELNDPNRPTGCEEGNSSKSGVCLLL

MELK(h) (human) = MELK(h) (human) (UniProt Q14680)
MRCKβ(h) (human) = MRCKβ(h) (human) (UniProt Q9Y5S2)
MSSK1(h) (human) = MSSK1(h) (human) (UniProt Q9UPE1)
PKA(h) (human) = PKA(h) (human) (UniProt P17612)
PKCι(h) (human) = PKCι(h) (human) (UniProt P41743)
PRK2(h) (human) = PRK2(h) (human) (UniProt Q16513)
Pim-2(h) (human) = Pim-2(h) (human) (UniProt Q9P1W9)
ROCK-I(h) (human) = ROCK-I(h) (human) (UniProt Q13464)
Rsk1(h) (human) = Rsk1(h) (human) (UniProt Q15418)
SAPK2b(h) (human) = SAPK2b(h) (human) (UniProt Q15759)
SIK(h) (human) = SIK(h) (human) (UniProt P57059)
Src(T341M)(h) (human) = Src(T341M)(h) (human) (UniProt P12931)
ULK3(h) (human) = target: T3, ULK3(h) (human) (UniProt Q6PHR2)
T3 sequence (looked up): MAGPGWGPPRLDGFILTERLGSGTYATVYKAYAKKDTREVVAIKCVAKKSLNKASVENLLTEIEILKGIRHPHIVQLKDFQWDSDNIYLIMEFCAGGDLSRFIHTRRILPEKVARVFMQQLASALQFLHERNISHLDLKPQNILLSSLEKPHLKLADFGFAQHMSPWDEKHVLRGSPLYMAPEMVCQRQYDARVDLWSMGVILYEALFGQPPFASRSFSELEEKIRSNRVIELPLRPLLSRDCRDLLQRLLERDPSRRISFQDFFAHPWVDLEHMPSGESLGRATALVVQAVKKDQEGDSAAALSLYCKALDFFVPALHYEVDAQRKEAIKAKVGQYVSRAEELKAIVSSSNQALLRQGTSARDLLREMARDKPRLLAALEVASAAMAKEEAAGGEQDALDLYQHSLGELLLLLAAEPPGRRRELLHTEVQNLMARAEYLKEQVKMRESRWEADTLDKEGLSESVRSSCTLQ

ZIPK(h) (human) = ZIPK(h) (human) (UniProt O43293)

Sequence of SAPK2b(h) (human) (Q15759 whole entry): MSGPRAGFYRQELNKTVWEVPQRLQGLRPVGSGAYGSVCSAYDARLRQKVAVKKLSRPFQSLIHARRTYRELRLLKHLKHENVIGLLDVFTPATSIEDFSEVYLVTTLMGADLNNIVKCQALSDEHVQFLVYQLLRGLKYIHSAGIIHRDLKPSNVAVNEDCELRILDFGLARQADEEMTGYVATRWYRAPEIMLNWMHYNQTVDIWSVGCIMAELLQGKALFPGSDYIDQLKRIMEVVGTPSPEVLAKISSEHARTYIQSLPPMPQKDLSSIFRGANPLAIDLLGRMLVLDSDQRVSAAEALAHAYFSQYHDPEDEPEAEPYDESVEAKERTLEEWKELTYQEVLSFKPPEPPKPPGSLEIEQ
Sequence of Rsk1(h) (human) (Q15418 whole entry): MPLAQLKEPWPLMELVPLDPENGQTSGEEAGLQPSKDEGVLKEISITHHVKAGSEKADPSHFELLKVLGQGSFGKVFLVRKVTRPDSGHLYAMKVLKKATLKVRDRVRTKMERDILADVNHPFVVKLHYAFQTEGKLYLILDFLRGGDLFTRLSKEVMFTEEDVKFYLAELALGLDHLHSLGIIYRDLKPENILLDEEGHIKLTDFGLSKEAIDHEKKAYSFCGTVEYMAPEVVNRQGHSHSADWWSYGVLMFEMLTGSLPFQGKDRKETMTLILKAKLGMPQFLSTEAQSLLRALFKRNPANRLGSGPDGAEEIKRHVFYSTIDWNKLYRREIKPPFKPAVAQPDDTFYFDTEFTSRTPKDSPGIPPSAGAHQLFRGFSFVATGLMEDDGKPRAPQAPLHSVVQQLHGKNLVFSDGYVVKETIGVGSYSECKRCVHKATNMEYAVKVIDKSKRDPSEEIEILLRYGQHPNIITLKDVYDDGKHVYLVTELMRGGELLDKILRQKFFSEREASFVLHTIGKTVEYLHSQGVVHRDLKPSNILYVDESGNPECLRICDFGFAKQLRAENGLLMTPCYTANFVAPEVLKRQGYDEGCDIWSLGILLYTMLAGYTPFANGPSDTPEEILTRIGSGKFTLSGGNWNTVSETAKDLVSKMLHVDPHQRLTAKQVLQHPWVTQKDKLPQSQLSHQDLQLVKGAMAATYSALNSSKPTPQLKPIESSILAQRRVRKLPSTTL
Sequence of MRCKβ(h) (human) (Q9Y5S2 1-473 limits assumed): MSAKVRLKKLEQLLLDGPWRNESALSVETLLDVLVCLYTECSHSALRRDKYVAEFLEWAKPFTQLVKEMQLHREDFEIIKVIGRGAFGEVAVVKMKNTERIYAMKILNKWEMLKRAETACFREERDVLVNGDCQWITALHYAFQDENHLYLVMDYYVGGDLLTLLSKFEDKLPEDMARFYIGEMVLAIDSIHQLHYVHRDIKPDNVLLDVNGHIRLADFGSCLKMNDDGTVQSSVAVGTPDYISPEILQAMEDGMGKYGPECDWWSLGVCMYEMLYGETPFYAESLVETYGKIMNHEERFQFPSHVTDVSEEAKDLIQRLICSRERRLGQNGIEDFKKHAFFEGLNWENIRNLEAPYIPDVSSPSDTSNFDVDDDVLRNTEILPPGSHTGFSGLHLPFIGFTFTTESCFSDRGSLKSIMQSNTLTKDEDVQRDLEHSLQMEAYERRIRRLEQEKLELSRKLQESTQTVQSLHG
Sequence of EphB3(h) (human) (P54753 581-998 limits assumed): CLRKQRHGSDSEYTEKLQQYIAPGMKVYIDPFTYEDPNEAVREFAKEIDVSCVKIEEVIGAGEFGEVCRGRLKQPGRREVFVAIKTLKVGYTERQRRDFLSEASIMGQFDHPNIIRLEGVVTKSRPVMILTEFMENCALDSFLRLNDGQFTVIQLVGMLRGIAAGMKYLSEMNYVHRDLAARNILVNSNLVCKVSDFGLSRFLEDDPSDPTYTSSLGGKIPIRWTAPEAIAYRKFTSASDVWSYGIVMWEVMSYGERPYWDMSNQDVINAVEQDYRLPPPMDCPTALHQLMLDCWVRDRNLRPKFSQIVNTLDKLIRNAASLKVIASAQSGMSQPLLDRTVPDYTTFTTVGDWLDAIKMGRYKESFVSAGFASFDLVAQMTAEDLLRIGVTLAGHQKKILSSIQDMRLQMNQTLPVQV
Sequence of CHK2(I157T)(h) (human) (O96017 5-543 I157T limits assumed): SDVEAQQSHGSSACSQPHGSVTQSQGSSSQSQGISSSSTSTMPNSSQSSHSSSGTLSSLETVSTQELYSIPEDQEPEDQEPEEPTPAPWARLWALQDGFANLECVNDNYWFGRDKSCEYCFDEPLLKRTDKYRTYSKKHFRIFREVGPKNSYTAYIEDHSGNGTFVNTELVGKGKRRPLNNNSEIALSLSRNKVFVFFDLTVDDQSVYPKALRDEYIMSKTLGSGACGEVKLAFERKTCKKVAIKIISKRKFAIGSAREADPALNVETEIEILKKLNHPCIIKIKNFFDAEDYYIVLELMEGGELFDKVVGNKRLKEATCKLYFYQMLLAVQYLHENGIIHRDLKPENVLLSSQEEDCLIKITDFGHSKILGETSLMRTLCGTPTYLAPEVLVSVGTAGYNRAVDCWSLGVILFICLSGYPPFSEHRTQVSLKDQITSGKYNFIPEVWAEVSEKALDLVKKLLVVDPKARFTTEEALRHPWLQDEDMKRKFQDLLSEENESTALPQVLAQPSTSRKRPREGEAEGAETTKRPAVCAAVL

% activity at 100 µM (CHK2(I157T)(h) (human)) [%]	% activity at 100 µM (EphB3(h) (human)) [%]	% activity at 100 µM (GCK(h) (human)) [%]	% activity at 100 µM (GRK7(h) (human)) [%]	% activity at 100 µM (MELK(h) (human)) [%]	% activity at 100 µM (MRCKβ(h) (human)) [%]	% activity at 100 µM (MSSK1(h) (human)) [%]	% activity at 100 µM (PKA(h) (human)) [%]	% activity at 100 µM (PKCι(h) (human)) [%]	% activity at 100 µM (PRK2(h) (human)) [%]	% activity at 100 µM (Pim-2(h) (human)) [%]	% activity at 100 µM (ROCK-I(h) (human)) [%]	% activity at 100 µM (Rsk1(h) (human)) [%]	% activity at 100 µM (SAPK2b(h) (human)) [%]	% activity at 100 µM (SIK(h) (human)) [%]	% activity at 100 µM (Src(T341M)(h) (human)) [%]	% activity at 100 µM (ULK3(h) (human)) [%]	% activity at 100 µM (ZIPK(h) (human)) [%]	Substance
43	62	70	122	16	83	77	119	68	33	76	79	46	81	66	70	167	28	MMI-0300 (peptide)
41	47	66	100	17	71	75	119	46	27	92	73	54	82	68	76	147	13	MMI-0400 (peptide)
3	79	30	93	0	-10	22	118	7	7	46	17	34	42	40	59	177	1	MMI-0500 (peptide)
